T1: human CD70 expressed on the surface of cells (human) (UniProt P32970)
T1 sequence (looked up): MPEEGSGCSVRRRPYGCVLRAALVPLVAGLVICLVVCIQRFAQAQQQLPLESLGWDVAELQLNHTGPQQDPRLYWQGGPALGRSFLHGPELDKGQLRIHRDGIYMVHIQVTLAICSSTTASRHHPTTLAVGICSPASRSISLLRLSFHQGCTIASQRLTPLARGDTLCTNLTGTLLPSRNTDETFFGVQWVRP

T2: recombinant human CD70 (Flag-TNC-CD70) (human) (UniProt P32970)
T2 sequence (looked up): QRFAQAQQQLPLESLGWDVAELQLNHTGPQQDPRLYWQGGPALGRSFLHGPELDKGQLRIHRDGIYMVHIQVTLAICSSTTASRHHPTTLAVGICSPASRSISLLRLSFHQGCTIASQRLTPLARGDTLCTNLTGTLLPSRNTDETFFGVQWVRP

T3: rhesus CD70 on LCL8664 cells (rhesus) (UniProt F7GPA5)
T3 sequence: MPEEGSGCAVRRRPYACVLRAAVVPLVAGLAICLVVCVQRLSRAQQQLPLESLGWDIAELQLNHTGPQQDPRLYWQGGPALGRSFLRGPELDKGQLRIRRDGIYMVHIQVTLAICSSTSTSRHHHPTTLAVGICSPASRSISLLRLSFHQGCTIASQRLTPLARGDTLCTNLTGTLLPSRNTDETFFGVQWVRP

B1: SGN70 (antibody, INN chains, looked up, V domains shown)
VH: QVQLVQSGAEVKKPGASVKVSCKASGYTFTNYGMNWVRQAPGQGLKWMGWINTYTGEPTYADAFKGRVTMTRDTSISTAYMELSRLRSDDTAVYYCARDYGDYGMDYWGQGTTVTVSS
VL: DIVMTQSPDSLAVSLGERATINCRASKSVSTSGYSFMHWYQQKPGQPPKLLIYLASNLESGVPDRFSGSGSGTDFTLTISSLQAEDVAVYYCQHSREVPWTFGQGTKVEIK
B2: SGN70-Fab (Fab, INN chains, looked up, V domains shown)
VH: B1 VH
VL: B1 VL
modifications: Fab

How the values were obtained:
[1] = biological target: T1, human CD70 expressed on the surface of cells (human); assay: cell-based or functional assay
[2] = biological target: T2, recombinant human CD70 (Flag-TNC-CD70) (human); assay: blocking ELISA; human Flag-TNC-CD70; competitor CD27-Fc
[3] = biological target: rhesus recombinant CD70 (FLAG-TNC-rhesus CD70) (rhesus); assay: blocking ELISA; rhesus Flag-TNC-CD70; competitor CD27-Fc
[4] = biological target: cynomolgus monkey Flag-TNC-CD70 (cynomolgus monkey); assay: blocking ELISA; cynomolgus Flag-TNC-CD70; competitor CD27-Fc
[5] = biological target: T2, recombinant human CD70 (Flag-TNC-CD70) (human); assay: inhibition ELISA; Flag-TNC-CD70 captured by anti-Flag mAb; competitor CD27-Fc
[6] = biological target: T1, human CD70 expressed on the surface of cells (human); assay: flow cytometry on U266 cells, goat anti human IgG1 FITC [panel U266]
[7] = biological target: T2, recombinant human CD70 (Flag-TNC-CD70) (human); assay: blocking ELISA; Flag-TNC-CD70 captured by anti-FLAG M2; competitor CD27-Fc 6.5 nM
[8] = biological target: T3, rhesus CD70 on LCL8664 cells (rhesus); assay: flow cytometry on rhesus LCL8664 cells, goat anti human IgG1 FITC [panel Rhesus monkey]
[9] = biological target: T1, human CD70 expressed on the surface of cells (human); assay: flow cytometry on U266 cells, 1 h at 4 °C, anti-hIgG1-Fc-FITC or anti-hIgG-Fc-PE [panel U266]
[10] = biological target: T2, recombinant human CD70 (Flag-TNC-CD70) (human); assay: Biacore; recombinant human CD70 on CM5 chip; Fab injected
[11] = biological target: T2, recombinant human CD70 (Flag-TNC-CD70) (human); assay: Biacore; recombinant human CD70 on CM5 chip; Fab from papain digestion

Binder | IC50 (ng/ml), IL-8 secretion in Raji / HT1080-CD27 co-culture assay [1] [ng/mL] | IC50 [2] [mg/L] | IC50 [3] [mg/L] | IC50 [4] [mg/L] | IC50 [5] [mg/L] | EC50 (read off the curve) [6] [mg/L] | IC50 [7] [mg/L] | EC50 (read off the curve) [8] [mg/L] | EC50 (read off the curve) [9] [mg/L] | koff [10] [s⁻¹] | koff [11] [s⁻¹]
B1 | 55 | 0.054 | 0.178 | 0.112 | 0.33 | 0.08 | 4.97 | 0.1 | 0.08 |  | 
B2 |  |  |  |  |  |  |  |  |  | 0.0007 | 0.0007

— patent US20150266963A1
